The record followed here is patent US20020081652A1.

Test [1] has as its target human muscle-type AChR on TE671 cells (human) (UniProt P02708). Put plainly: cell-based or functional assay.
The target of test [2] is mAb 198. The test is described as follows: competition ELISA: fragment preincubated with mAb 198, binding of mAb 198 to coated Torpedo AChR read. On the technique in general: ELISA stands for enzyme-linked immunosorbent assay.
The target in test [3] is mAb 198. The test is described as follows: competition ELISA: polypeptide preincubated with mAb 198, binding of mAb 198 to coated Torpedo AChR read.
Test [4] concerns the target mAb 198. The test is described as follows: cell-based or functional assay.

mAb 198 (antibody) displayed a residual AChR on TE671 cells (α-BTX binding sites) after 3 h incubation with 1 µg/ml mAb in test [1] of 41%.
The IC50 is the concentration that inhibits the measured activity by half. Low values mean inhibition by little substance, high ones a need for much substance. As to “Hα1-210+p3A fused to glutathione S-transferase (GST) at the N-terminus (from UniProt P08515 1-218) (receptor)”, the IC50 with mAb 198 [2] came to 1300 nM; in the test with mAb 198 [3] it was 180 nM.
In the case of “Hα1-121+p3A fused to glutathione S-transferase (GST) at the N-terminus (receptor)”, in the test with mAb 198 [3], the IC50 was determined as 100 nM.
Turning to “Hα1-121 fused to glutathione S-transferase (GST) at the N-terminus (from UniProt P02708 21-141) (receptor)”, the protection of TE671 cells against AChR degradation induced by mAb 198 (residual α-BTX binding sites) with mAb 198 [4] was found to be 100 µg/mL.
